Results taken from patent publication US20220089710A1, “Method of Treating Signs and Symptoms of Osteoarthritis” (Pfizer Inc., priority 2019, published 2022).
Like-named read-outs stand apart in the source and are kept apart here.

Columns and labels:
[1] = test system: patients with osteoarthritis (OA) of the knee or hip; test: Example 3: treatment-emergent adverse events and deaths, Safety Population; conditions: 5 mg SC; treatment period;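 also: seven SC injections given 8 weeks apart plus twice-daily oral study medication up to Week 56, Safety Population of all patients dosed at least once SC, analyzed by treatment actually received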
Protocol: (§1) Patients received a total of seven SC injections, each separated by 8 weeks and daily oral (PO) study medication BID through Week 56.
(§2) The Intent-to-Treat (ITT) Population included all patients who were randomized and received at least one dose of SC study drug. This analysis set was primary for all efficacy endpoints, which were analyzed according to randomization assignment. The Safety Population included all patients who received at least one dose of SC study treatment. This analysis set was primary for all safety endpoints, which were analyzed according to treatment received.

[2] = test system: patients with osteoarthritis (OA) of the knee or hip; conditions: for PGA-OA: LS Mean (SE) change from Baseline / PGA-OA: LS Mean Difference vs. NSAID (SE) / WOMAC Pain ≥30% reduction: % of patients / WOMAC Pain ≥30% reduction: number of patients / WOMAC Pain ≥70% reduction: % of patients / WOMAC Pain ≥70% reduction: number of patients / WOMAC Pain ≥90% reduction: % of patients / WOMAC Pain ≥90% reduction: number of patients / WOMAC Pain: LS Mean Difference vs. NSAID (SE) / WOMAC Physical Function: LS Mean (SE) change from Baseline / WOMAC Physical Function: LS Mean Difference vs. NSAID (SE) / WOMAC Pain: LS Mean (SE) change from Baseline / WOMAC Pain ≥50% reduction: % of patients / WOMAC Pain ≥50% reduction: number of patients: Week 16; for PGA-OA: LS Mean Difference vs. NSAID / PGA-OA: LS Mean change from Baseline / WOMAC Pain: LS Mean Difference vs. NSAID / WOMAC Pain: LS Mean change from Baseline / WOMAC Physical Function: LS Mean Difference vs. NSAID / WOMAC Physical Function: LS Mean change from Baseline: Week 56;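 as to all read-outs here: SC doses every 8 weeks plus twice-daily oral study drug to Week 56, efficacy assessed in all randomized patients given at least one SC dose, by assigned arm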
Protocol: as §1, §2

tanezumab: humanized immunoglobulin G Type 2 (IgG2) monoclonal antibody directed against human nerve growth factor (NGF); SEQ ID NOs: 9 or 11 and 10
Nasopharyngitis: % of patients [1]: 6.7% | Nasopharyngitis: number of patients [1]: 67 | Osteoarthritis: % of patients [1]: 5.4% | Osteoarthritis: number of patients [1]: 54 | Pain in extremity: % of patients [1]: 3.7% | Pain in extremity: number of patients [1]: 37 | Paraesthesia: % of patients [1]: 3.0% | Paraesthesia: number of patients [1]: 30 | Peripheral edema: % of patients [1]: 4.3% | Peripheral edema: number of patients [1]: 43 | Rapidly progressive osteoarthritis (adverse event): % of patients [1]: 4.1% | Rapidly progressive osteoarthritis (adverse event): number of patients [1]: 41 | Serious AE Acute kidney injury: % [1]: 0.2% | Serious AE Acute kidney injury: n [1]: 2 | Serious AE Acute myocardial infarction: % [1]: 0.1% | Serious AE Acute myocardial infarction: n [1]: 1 | Serious AE Arthralgia: % [1]: 0.9% | Serious AE Arthralgia: n [1]: 9 | Serious AE Cellulitis: % [1]: 0.2% | Serious AE Cellulitis: n [1]: 2 | Serious AE Cerebrovascular accident: n [1]: 0 | Serious AE Gastrointestinal hemorrhage: n [1]: 0 | Serious AE Intervetebral disc protrusion: % [1]: 0.2% | Serious AE Intervetebral disc protrusion: n [1]: 2 | Serious AE Meniscus injury: % [1]: 0.3% | Serious AE Meniscus injury: n [1]: 3 | Serious AE Osteoarthritis: % [1]: 1.7% | Serious AE Osteoarthritis: n [1]: 17 | Serious AE Osteonecrosis: % [1]: 0.2% | Serious AE Osteonecrosis: n [1]: 2 | Serious AE Pneumonia: % [1]: 0.2% | Serious AE Pneumonia: n [1]: 2 | Serious AE RPOA: % [1]: 1.1% | Serious AE RPOA: n [1]: 11 | Serious AE Subchondral insufficiency fracture: % [1]: 0.4% | Serious AE Subchondral insufficiency fracture: n [1]: 4 | Serious Adverse Event (any event): % of patients [1]: 8.0% | Serious Adverse Event (any event): number of patients [1]: 80 | Severe Adverse Event: % of patients [1]: 6.8% | Severe Adverse Event: number of patients [1]: 68 | Upper respiratory tract infection: number of patients [1]: 45 | PGA-OA: LS Mean (SE) change from Baseline ([2]; 2.5 mg SC): −0.96 (0.04) | PGA-OA: LS Mean Difference vs. NSAID (SE) ([2]; 2.5 mg SC): −0.02 (0.04) | WOMAC Pain ≥30% reduction: % of patients ([2]; 2.5 mg SC): 71.8% | WOMAC Pain ≥30% reduction: number of patients ([2]; 2.5 mg SC): 718 | WOMAC Pain ≥70% reduction: % of patients ([2]; 2.5 mg SC): 28.9% | WOMAC Pain ≥70% reduction: number of patients ([2]; 2.5 mg SC): 289 | WOMAC Pain ≥90% reduction: % of patients ([2]; 2.5 mg SC): 10.3% | WOMAC Pain ≥90% reduction: number of patients ([2]; 2.5 mg SC): 103 | WOMAC Pain: LS Mean Difference vs. NSAID (SE) ([2]; 2.5 mg SC): −0.15 (0.11) | WOMAC Physical Function: LS Mean (SE) change from Baseline ([2]; 2.5 mg SC): −3.27 (0.11) | WOMAC Physical Function: LS Mean Difference vs. NSAID (SE) ([2]; 2.5 mg SC): −0.19 (0.11) | WOMAC Pain: LS Mean (SE) change from Baseline ([2]; 2.5 mg SC, ITT, multiple imputation): −3.22 (0.11) | WOMAC Pain ≥50% reduction: % of patients ([2]; 2.5 mg SC, mixed BOCF/LOCF): 54.9% | WOMAC Pain ≥50% reduction: number of patients ([2]; 2.5 mg SC, mixed BOCF/LOCF): 549 | PGA-OA: LS Mean Difference vs. NSAID ([2]; 2.5 mg SC): 0.01 | PGA-OA: LS Mean change from Baseline ([2]; 2.5 mg SC): −0.65 | WOMAC Pain: LS Mean Difference vs. NSAID ([2]; 2.5 mg SC): −0.02 | WOMAC Pain: LS Mean change from Baseline ([2]; 2.5 mg SC): −2.44 | WOMAC Physical Function: LS Mean Difference vs. NSAID ([2]; 2.5 mg SC): −0.05 | WOMAC Physical Function: LS Mean change from Baseline ([2]; 2.5 mg SC): −2.45 | PGA-OA: LS Mean (SE) change from Baseline ([2]; 5 mg SC): −0.97 (0.04) | PGA-OA: LS Mean Difference vs. NSAID (SE) ([2]; 5 mg SC): −0.04 (0.04) | WOMAC Pain ≥30% reduction: % of patients ([2]; 5 mg SC): 72.9% | WOMAC Pain ≥30% reduction: number of patients ([2]; 5 mg SC): 725 | WOMAC Pain ≥50% reduction: % of patients ([2]; 5 mg SC): 56.5% | WOMAC Pain ≥50% reduction: number of patients ([2]; 5 mg SC): 562 | WOMAC Pain ≥70% reduction: % of patients ([2]; 5 mg SC): 35.0% | WOMAC Pain ≥70% reduction: number of patients ([2]; 5 mg SC): 348 | WOMAC Pain ≥90% reduction: % of patients ([2]; 5 mg SC): 12.7% | WOMAC Pain ≥90% reduction: number of patients ([2]; 5 mg SC): 126 | WOMAC Pain: LS Mean (SE) change from Baseline ([2]; 5 mg SC): −3.33 (0.11) | WOMAC Pain: LS Mean Difference vs. NSAID (SE) ([2]; 5 mg SC): −0.26 (0.11) | WOMAC Physical Function: LS Mean (SE) change from Baseline ([2]; 5 mg SC): −3.39 (0.11) | WOMAC Physical Function: LS Mean Difference vs. NSAID (SE) ([2]; 5 mg SC): −0.31 (0.10) | PGA-OA: LS Mean Difference vs. NSAID ([2]; 5 mg SC): 0.06 | PGA-OA: LS Mean change from Baseline ([2]; 5 mg SC): −0.60 | WOMAC Pain: LS Mean Difference vs. NSAID ([2]; 5 mg SC): 0.05 | WOMAC Pain: LS Mean change from Baseline ([2]; 5 mg SC): −2.37 | WOMAC Physical Function: LS Mean Difference vs. NSAID ([2]; 5 mg SC): 0.05 | WOMAC Physical Function: LS Mean change from Baseline ([2]; 5 mg SC): −2.36
